Source: patent US20200283521A1 (GRANULAR THERAPEUTICS, published 2020)

Experiments:
Assay in all cases: direct ELISA on coated protein, IgG1
h4-1BB-Fc = biological target: T1, h4-1BB-Fc
T1 construct: member of the panel m9

hCMET-Fc = biological target: T2, hCMET-Fc (The natural ectodomain is cleaved by furin after residue 307 into disulfide-linked alpha and beta chains. It is given here as one continuous stretch.)
T2 construct: member of the panel m9
T2 chain: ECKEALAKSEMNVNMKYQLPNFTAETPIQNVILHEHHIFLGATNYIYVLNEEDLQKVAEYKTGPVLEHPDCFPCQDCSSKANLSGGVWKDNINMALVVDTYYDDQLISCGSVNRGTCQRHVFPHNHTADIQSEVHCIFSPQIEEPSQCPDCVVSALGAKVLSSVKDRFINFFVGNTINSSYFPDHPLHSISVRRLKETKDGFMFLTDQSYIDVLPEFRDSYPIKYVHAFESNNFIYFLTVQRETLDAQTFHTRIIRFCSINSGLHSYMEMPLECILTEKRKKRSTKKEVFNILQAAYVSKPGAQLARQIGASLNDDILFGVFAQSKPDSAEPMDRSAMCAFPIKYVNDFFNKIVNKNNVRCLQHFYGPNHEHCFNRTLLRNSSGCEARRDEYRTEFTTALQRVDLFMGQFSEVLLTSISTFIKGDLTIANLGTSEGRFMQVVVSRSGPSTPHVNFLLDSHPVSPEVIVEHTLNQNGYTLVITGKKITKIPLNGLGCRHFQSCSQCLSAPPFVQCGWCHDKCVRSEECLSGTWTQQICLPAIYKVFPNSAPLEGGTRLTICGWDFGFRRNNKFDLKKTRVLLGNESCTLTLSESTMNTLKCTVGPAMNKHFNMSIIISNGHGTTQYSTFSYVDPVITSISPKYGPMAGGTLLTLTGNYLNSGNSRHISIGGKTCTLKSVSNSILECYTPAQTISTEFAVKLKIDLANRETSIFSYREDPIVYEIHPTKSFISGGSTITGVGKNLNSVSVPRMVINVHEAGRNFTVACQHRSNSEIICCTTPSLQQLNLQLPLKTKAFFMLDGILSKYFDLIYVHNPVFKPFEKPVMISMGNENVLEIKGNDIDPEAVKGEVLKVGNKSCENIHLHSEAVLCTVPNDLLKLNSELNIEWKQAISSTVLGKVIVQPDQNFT

hOX40-Fc = biological target: T3, hOX40-Fc
T3 construct: member of the panel m9
T3 chain: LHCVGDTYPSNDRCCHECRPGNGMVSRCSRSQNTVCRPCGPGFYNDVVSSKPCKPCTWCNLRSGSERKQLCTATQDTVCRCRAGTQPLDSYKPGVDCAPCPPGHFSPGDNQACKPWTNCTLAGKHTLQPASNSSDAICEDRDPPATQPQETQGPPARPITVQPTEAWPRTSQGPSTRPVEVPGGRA

hTWEAK-Fc = biological target: T4, hTWEAK-Fc (human, UniProt O43508)
T4 construct: Fc fusion; member of the panel m9
T4 sequence (looked up): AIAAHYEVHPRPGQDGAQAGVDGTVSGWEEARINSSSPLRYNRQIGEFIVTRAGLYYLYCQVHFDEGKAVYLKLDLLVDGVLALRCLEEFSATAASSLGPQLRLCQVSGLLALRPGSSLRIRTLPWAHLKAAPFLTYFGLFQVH

hICAM-1-Fc = biological target: T5, hICAM-1-Fc (human, UniProt P05362)
T5 construct: Fc fusion; member of the panel m9

hDR3-Fc = biological target: T6, hDR3-Fc (human, UniProt Q93038)
T6 construct: Fc fusion; member of the panel m9
T6 sequence (looked up): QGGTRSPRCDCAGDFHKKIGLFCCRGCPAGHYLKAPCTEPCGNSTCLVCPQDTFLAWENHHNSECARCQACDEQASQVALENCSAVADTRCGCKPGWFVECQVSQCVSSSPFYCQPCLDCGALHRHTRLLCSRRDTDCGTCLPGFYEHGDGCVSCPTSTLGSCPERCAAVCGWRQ

hVCAM-1 = biological target: T7, hVCAM-1 (human, UniProt P19320)
T7 construct: purified recombinant protein; member of the panel m9
T7 sequence (looked up): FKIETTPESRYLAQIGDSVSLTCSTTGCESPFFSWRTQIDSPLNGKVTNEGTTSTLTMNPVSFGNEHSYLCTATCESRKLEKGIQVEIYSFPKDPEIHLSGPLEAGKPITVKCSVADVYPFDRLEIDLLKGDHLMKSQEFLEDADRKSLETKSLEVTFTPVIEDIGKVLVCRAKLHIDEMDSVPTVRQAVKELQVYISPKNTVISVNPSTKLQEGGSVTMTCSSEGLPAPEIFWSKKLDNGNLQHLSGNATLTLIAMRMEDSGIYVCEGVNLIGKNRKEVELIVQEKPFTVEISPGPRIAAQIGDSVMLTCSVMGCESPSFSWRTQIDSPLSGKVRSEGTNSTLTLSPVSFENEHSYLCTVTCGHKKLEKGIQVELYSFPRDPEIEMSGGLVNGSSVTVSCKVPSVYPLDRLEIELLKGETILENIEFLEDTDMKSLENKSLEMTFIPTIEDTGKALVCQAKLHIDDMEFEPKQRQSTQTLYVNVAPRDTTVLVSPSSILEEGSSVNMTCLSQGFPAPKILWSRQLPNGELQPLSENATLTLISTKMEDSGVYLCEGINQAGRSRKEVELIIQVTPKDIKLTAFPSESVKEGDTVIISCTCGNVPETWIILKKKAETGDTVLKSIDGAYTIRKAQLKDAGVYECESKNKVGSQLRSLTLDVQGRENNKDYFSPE

hLTBR-Fc = biological target: T8, hLTBR-Fc (human, UniProt P36941)
T8 construct: Fc fusion; member of the panel m9

hBAFFR-Fc = biological target: T9, hBAFFR-Fc (human, UniProt Q96RJ3)
T9 construct: Fc fusion; member of the panel m9

Measured: binding result

T8 sequence (P36941 28-227 limits assumed): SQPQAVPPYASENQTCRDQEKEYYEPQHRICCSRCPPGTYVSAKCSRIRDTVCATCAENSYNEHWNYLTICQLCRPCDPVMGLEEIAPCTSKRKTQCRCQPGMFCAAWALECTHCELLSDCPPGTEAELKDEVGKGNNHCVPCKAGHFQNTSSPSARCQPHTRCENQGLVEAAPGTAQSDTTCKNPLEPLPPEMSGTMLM
T9 sequence (Q96RJ3 7-71 limits assumed): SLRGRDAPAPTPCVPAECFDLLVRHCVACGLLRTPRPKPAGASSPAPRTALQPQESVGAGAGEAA
T5 sequence (P05362 28-480 limits assumed): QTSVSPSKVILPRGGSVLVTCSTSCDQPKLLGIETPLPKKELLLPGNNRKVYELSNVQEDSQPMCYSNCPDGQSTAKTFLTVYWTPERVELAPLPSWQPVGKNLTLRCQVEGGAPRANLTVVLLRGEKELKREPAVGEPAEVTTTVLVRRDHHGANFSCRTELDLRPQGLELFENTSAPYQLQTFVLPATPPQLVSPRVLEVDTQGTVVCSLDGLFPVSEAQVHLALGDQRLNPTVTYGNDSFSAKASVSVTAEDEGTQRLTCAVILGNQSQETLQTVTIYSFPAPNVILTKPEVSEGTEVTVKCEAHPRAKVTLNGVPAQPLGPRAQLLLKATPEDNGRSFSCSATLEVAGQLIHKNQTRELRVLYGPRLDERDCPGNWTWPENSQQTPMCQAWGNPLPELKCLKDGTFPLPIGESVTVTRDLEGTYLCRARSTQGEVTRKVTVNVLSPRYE
T1 sequence (chain, as listed by the source limits assumed): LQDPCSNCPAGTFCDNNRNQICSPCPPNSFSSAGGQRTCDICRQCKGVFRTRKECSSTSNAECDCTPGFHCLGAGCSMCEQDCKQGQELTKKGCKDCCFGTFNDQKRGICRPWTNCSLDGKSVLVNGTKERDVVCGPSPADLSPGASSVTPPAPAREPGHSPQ

B1: MH5, human IgG1 (antibody, V domains shown)
VH: QVQLVQSGAEVKKPGASVKVSCKASGYTFTDYYMNWVRQAPGQGLEWMGRIYPGSGNTYYAQKFQGRVTMTRDTSTSTVYMELSSLRSEDTAVYYCARGVYYYDYWGQGTLVTVSS
VL: DIQMTQSPSSLSASVGDRVTITCRASQGIRTNLAWFQQKPGKAPKSLIYSASSLQSGVPSRFSGSGSGTDFTLTISSLQPEDFATYYCQQYANYPRTFGGGTKVEIK
notes: IgG1; also called C-KIT-MH5; C-KIT-MHS
no binding (tested: 1 µg/ml): all assays above
